Several values for one entry are separate records, joined by “and”; a condition that tells them apart may be missing. Identical values can stand only once.
Legend:
Assay in all cases: cryo-EM structure
Conditions in all cases: both partners purified
[1] = biological target: uncleaved H7 NY HA (HA0), A/New York/107/2003, ectodomain trimer (influenza A virus (A/New York/107/2003))
[2] = biological target: T1, cleaved H7 NL HA (HA1/HA2), A/Netherlands/219/2003, ectodomain trimer (influenza A virus …, UniProt Q6VMK1)
T1 construct: copies: 3 + 3

[3] = biological target: T2, cleaved H7 Sh2 HA (HA1/HA2), A/Shanghai/2/2013, ectodomain trimer (influenza A virus (A/Shanghai/2/2013))
T2 construct: copies: 3 + 3

B1: H7.5 Fab (papain digest of H7.5 IgG) (Fab, V domains shown)
VH: QVQLVQSGAEVKKPGASVKVSCKASGYTLTRYYFHWVRQAPGQGFEWMGIINPNGGGTSYAQKFGDRVIMTSDMSTSTIYMELSSLRSEDTAVYYCARDMPYYHDSGGPLFDLWGQGTLVTVSS
VL: EIVMTQSPSSLSASVGDRVTITCRPSQSISTFLNWYEQKPGKAPKLLIYDASSLQSGVPSRFSGSGSGTEFTLTISSLQPEDFATYYCQQSFSTPYTFGQGTRLEIK
stoichiometry N [1]: 3 Fabs per trimer
stoichiometry N [2]: 3 Fabs per trimer and 2 Fabs per trimer
stoichiometry N [3]: 3 Fabs per trimer

Source: publication PMC6375650 (PLoS Biology, 2019)
